Assay results published in the supplement of paper PMC10567573.

B1: KLHDC10 (parent)
chain: FGGTGIPFGESNGNGVHVCNVKYK
B2: STK38L (parent)
chain: FLPGGDMMTLLMKKDTLTEEETQF

Variants of: B1
Assay: protein stability index of a GFP-peptide fusion (GPS, HEK-293T) (PSI 1-6); higher = more stable
Conditions: c terminus: a fixed tail appended
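Note: lentivirally expressed fusions sorted by FACS into six bins by GFP to DsRed ratio, PSI derived from sequencing read proportions per bin multiplied by bin number.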

Protein stability index of substitutions, site by site:
T4: V 2.5, G 2.03, D 2.52, H 1.9, F 2.08, R 1.93, Y 1.68, I 3.13, Q 1.6, E 2.68, P 2.91, S 1.82, C 1.94, A 2.02, N 1.98, L 1.82, W 2.52, K 1.72, M 1.65
I6: D 3.29, T 1.84, P 1.94, S 1.88, A 2.1, M 2.07, K 2.2, L 2.39, W 2.27, F 2.3, V 2.16, N 2.07, Q 2.27, G 1.96, E 3.02, C 1.87, R 1.72, H 2.08
G3: F 2.66, L 2.63, K 2.32, A 2.52, N 2.35, P 2.78, I 2.13, V 2.98, C 3.1, E 3.3, Q 2.88, M 2.29, S 2.61, R 2.77, H 2.54, W 1.42, Y 1.95, T 2.81, D 2.38
P7: L 3.6, G 2.23, N 2.4, S 2.14, M 1.29, K 2.01, I 1.73, C 1.5, H 2.13, R 2.07, T 2.33, A 1.41, F 3.68, E 2.44, D 2.92, Q 2.06
G2: S 2.11, L 2.19, W 2.2, T 1.97, N 2.16, F 2.72, Q 2.02, E 3.9, P 1.83, A 2.2, R 3.08, V 1.92, D 3.46, H 2.58, I 2.14, K 3.55, C 2.41, Y 2.55, M 2.7
F1: S 4.25, W 2.73, N 4.34, Q 4.24, V 3.79, T 3.98, P 3.9, E 3.67, C 3.03, I 3.5, M 4.04, A 4.18, D 4.58, Y 2.23, R 3.54, G 4.3, K 3.71, L 4.04, H 3.93
G5: K 1.52, W 2.69, Q 2.42, E 3.42, M 2.47, N 2.87, C 1.71, H 1.92, R 2, Y 1.34, I 3.13, L 1.89, D 2.95, T 2.18, P 1.86, F 1.92, V 1.9, A 2.07, S 2.39

Variants of: B2
Assay: as above
Conditions: c terminus: a fixed tail appended

Protein stability index: each site, then its substitutions
F24: E 2.35, P 2.64, Q 2.58, N 2.65, S 2.19, L 3.02, H 2.44, V 2.65, Y 2.52, D 2.97, W 2.09, M 2.4, G 2.84, I 2.77, R 2.09, T 2.42, C 1.77, A 2.28, K 2.53
E20: K 1.75, T 1.86, I 1.4, G 1.6, V 1.79, Q 1.76, D 2.45, P 1.82, N 2.5, F 1.97, L 1.13, Y 2.08, S 1.68, H 1.97, R 1.95, A 1.86, W 1.66, M 1.89, C 2.27
L17: K 2.51, W 1.75, N 2.78, M 2.53, G 2.37, P 2.46, A 2.95, E 3.35, H 2.26, R 2.39, T 2.63, I 2.11, C 2.36, D 3.2, Y 2, F 1.96, Q 1.98, S 2.59, V 1.94
T18: F 1.73, M 1.7, P 2.68, V 2.49, L 2.15, H 2.05, W 2.17, Y 2.18, Q 2.34, A 2.1, I 1.58, R 1.84, D 2.29, E 2.36, S 2.83, N 2.24, G 2.01, C 1.57, K 2
E19: P 2.11, C 1.73, N 1.72, G 2.35, D 2.42, K 1.97, I 2.02, Y 1.9, Q 2.12, W 2.14, R 1.78, L 1.62, M 1.66, T 1.51, H 2.01, A 2.13, F 1.87, S 2.61
E21: T 1.74, D 2.07, M 1.98, F 1.2, Y 1.88, P 1.65, N 1.84, Q 2.04, W 2.14, C 2.01, I 2, K 2.16, H 1.81, R 2.21, S 2.19, A 1.94, L 1.56, G 2.89, V 1.71
T16: A 2.4, I 2.36, Q 2.17, C 2.21, N 2.51, S 2.13, E 2.19, W 1.96, P 3.02, D 2.58, M 2, Y 2.24, K 2.31, H 2.48, L 1.74, F 1.89, R 2.11, V 2.33, G 2.43
K14: H 2.38, N 1.81, E 2.88, M 1.97, V 1.62, L 1.89, Q 2.18, F 2.39, Y 2.09, R 1.96, I 1.96, S 2.69, W 1.7, T 2.27, G 2.25, P 2.46
T22: C 2.05, M 1.97, R 2.37, H 2.06, F 2.25, L 2.12, G 2.08, D 2.12, A 2.53, K 2.18, Y 2.75, P 1.69, S 2.37, V 2.23, I 2.35, N 2.31, W 2.4, Q 2.21, E 3.21
Q23: I 2.12, M 2.4, D 3.06, V 2.25, K 2.45, L 1.74, R 3.09, S 2.91, P 2.21, C 2.24, W 1.43, E 2.25, N 2.37, G 2.61, T 2.09, H 2.27, A 2.05, Y 1.88, F 1.24
D15: G 2.05, H 2.35, Y 1.1, W 1.62, F 1.94, K 1.66, P 1.83, V 2.2, L 2.56, E 3.01, C 2.16, M 2.53, T 1.86, S 1.76, A 1.62, R 1.84, I 1.75, N 2.23, Q 1.66
